# Reference: PMC11910503, “Novel metal sites revealed by spectroscopic and structural characterization of the ferric uptake regulator from Acidithiobacillus ferrooxidans”
# Residue numbers refer to the chain shown, from its start.
# T1: AfFur C96A (Acidithiobacillus ferrooxidans ATCC …, UniProt B7J425 1-158, C96A)
# T1 sequence: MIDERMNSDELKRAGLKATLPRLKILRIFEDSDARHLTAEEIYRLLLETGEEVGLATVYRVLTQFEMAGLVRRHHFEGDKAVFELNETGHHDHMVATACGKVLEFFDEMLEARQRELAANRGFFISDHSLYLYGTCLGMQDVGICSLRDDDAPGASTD
# T2: AfFur C145A (Acidithiobacillus ferrooxidans ATCC …, UniProt B7J425 1-158, C145A)
# T2 sequence: T1 sequence with A96C, C145A
# T3: AfFur C136A (Acidithiobacillus ferrooxidans ATCC …, UniProt B7J425 1-158, C136A)
# T3 sequence: T1 sequence with A96C, C136A
# T4: AfFur C99A (Acidithiobacillus ferrooxidans ATCC …, UniProt B7J425 1-158, C99A)
# T4 sequence: T1 sequence with A96C, C99A
# T5: AfFur C145W (Acidithiobacillus ferrooxidans ATCC …, UniProt B7J425 1-158, C145W)
# T5 sequence: T1 sequence with A96C, C145W
# T6: AfFur H93A (Acidithiobacillus ferrooxidans ATCC …, UniProt B7J425 1-158, H93A)
# T6 sequence: T1 sequence with H93A, A96C
# T7: AfFur E104K (Acidithiobacillus ferrooxidans ATCC …, UniProt B7J425 1-158, E104K)
# T7 sequence: T1 sequence with A96C, E104K
# T8: AfFur H91D (Acidithiobacillus ferrooxidans ATCC …, UniProt B7J425 1-158, H91D)
# T8 sequence: T1 sequence with H91D, A96C
# T9: AfFur WT (Acidithiobacillus ferrooxidans ATCC …, UniProt B7J425 1-158)
# T9 sequence: T1 sequence with A96C
# T10: AfFur H91K (Acidithiobacillus ferrooxidans ATCC …, UniProt B7J425 1-158, H91K)
# T10 sequence: T1 sequence with H91K, A96C
# T11: AfFur E84A (Acidithiobacillus ferrooxidans ATCC …, UniProt B7J425 1-158, E84A)
# T11 sequence: T1 sequence with E84A, A96C
# B1: Bio-MntH-Fur-box (dsDNA)
# DNA 1: GGCATCAATAAACGGGAATCATTCTCGTCTACC
# DNA 2: GGTAGACGAGAATGATTCCCGTTTATTGATGCC
# Columns and labels:
# [1] = target: Ferric Uptake Regulator from Acidithiobacillus ferrooxidans (AfFur), wild type, N-terminal His-tag (Acidithiobacillus ferrooxidans ATCC 23270); test: SEC; size-exclusion chromatography of AfFur, data not shown; dimer in solution
# [2] = target: Ferric Uptake Regulator from Acidithiobacillus ferrooxidans (AfFur), wild type, N-terminal His-tag (Acidithiobacillus ferrooxidans ATCC 23270); test: SDS-PAGE and western blot; purified His-tagged AfFur on SDS-PAGE (Coomassie, Figure S2) and western blot with anti-6x His tag antibody (Figure S3); dimer
# AfFur C96A = target: T1, AfFur C96A; test: EMSA; 0.1 mM Mn2+, 5 mM Mg2+; also no shift + EDTA; 10 mM Tris pH 7.5, 50 mM KCl, 5 mM MgCl2, 0.1 mM MnCl2, 1 mM DTT, 2.5% glycerol, 50 ng/uL poly(dI-dC), 0.05% NP-40; 20 fmol probe, 2.9-3.9 ug protein in 20 uL; conditions: protein: recombinant; tags: N-terminal His6 (pLATE51); chain copies: 2; label: 5' biotin
# AfFur C145A = target: T2, AfFur C145A; test: as above; conditions: protein: recombinant; tags: N-terminal His6 (pLATE51); chain copies: 2; label: 5' biotin
# AfFur C136A = target: T3, AfFur C136A; test: as above; conditions: protein: recombinant; tags: N-terminal His6 (pLATE51); chain copies: 2; label: 5' biotin
# AfFur C99A = target: T4, AfFur C99A; test: as above; conditions: protein: recombinant; tags: N-terminal His6 (pLATE51); chain copies: 2; label: 5' biotin
# AfFur C145W = target: T5, AfFur C145W; test: as above; conditions: protein: recombinant; tags: N-terminal His6 (pLATE51); chain copies: 2; label: 5' biotin
# AfFur H93A = target: T6, AfFur H93A; test: EMSA; 0.1 mM Mn2+, 5 mM Mg2+; 10 mM Tris pH 7.5, 50 mM KCl, 5 mM MgCl2, 0.1 mM MnCl2, 1 mM DTT, 2.5% glycerol, 50 ng/uL poly(dI-dC), 0.05% NP-40; 20 fmol probe, 2.9-3.9 ug protein in 20 uL; conditions: protein: recombinant; tags: N-terminal His6 (pLATE51); chain copies: 2; label: 5' biotin
# AfFur E104K = target: T7, AfFur E104K; test: EMSA; 0.1 mM Mn2+, 5 mM Mg2+; lost with cold probe; 10 mM Tris pH 7.5, 50 mM KCl, 5 mM MgCl2, 0.1 mM MnCl2, 1 mM DTT, 2.5% glycerol, 50 ng/uL poly(dI-dC), 0.05% NP-40; 20 fmol probe, 2.9-3.9 ug protein in 20 uL; conditions: protein: recombinant; tags: N-terminal His6 (pLATE51); chain copies: 2; label: 5' biotin
# AfFur H91D = target: T8, AfFur H91D; test: as above; conditions: protein: recombinant; tags: N-terminal His6 (pLATE51); chain copies: 2; label: 5' biotin
# AfFur WT = target: T9, AfFur WT; test: EMSA; holo, 0.1 mM Mn2+, 5 mM Mg2+; shift lost with 200-fold cold probe; 10 mM Tris pH 7.5, 50 mM KCl, 5 mM MgCl2, 0.1 mM MnCl2, 1 mM DTT, 2.5% glycerol, 50 ng/uL poly(dI-dC), 0.05% NP-40; 20 fmol probe, 2.9-3.9 ug protein in 20 uL; conditions: protein: recombinant; tags: N-terminal His6 (pLATE51); chain copies: 2; label: 5' biotin
# AfFur H91K = target: T10, AfFur H91K; test: EMSA; 0.1 mM Mn2+, 5 mM Mg2+; shift persists with cold probe; 10 mM Tris pH 7.5, 50 mM KCl, 5 mM MgCl2, 0.1 mM MnCl2, 1 mM DTT, 2.5% glycerol, 50 ng/uL poly(dI-dC), 0.05% NP-40; 20 fmol probe, 2.9-3.9 ug protein in 20 uL; conditions: protein: recombinant; tags: N-terminal His6 (pLATE51); chain copies: 2; label: 5' biotin
# AfFur E84A = target: T11, AfFur E84A; test: as above; conditions: protein: recombinant; tags: N-terminal His6 (pLATE51); chain copies: 2; label: 5' biotin
Molecule,stoichiometry N [1],stoichiometry N [2],binding result (AfFur C96A),binding result (AfFur C145A),binding result (AfFur C136A),binding result (AfFur C99A),binding result (AfFur C145W),binding result (AfFur H93A),binding result (AfFur E104K),binding result (AfFur H91D),binding result (AfFur WT),binding result (AfFur H91K),binding result (AfFur E84A)
"Ferric Uptake Regulator from Acidithiobacillus ferrooxidans (AfFur), wild type, N-terminal His-tag (natural protein)",2,2,–,–,–,–,–,–,–,–,–,–,–
B1,–,–,no binding,no binding,no binding,no binding,no binding,no binding,binds,binds,binds,binds,binds
